Source: patent US5472938A, “Pharmaceutical depot compositions containing hirudin” (Ciba-Geigy Corporation, priority 1993, dated 1995)

Assay: Storage of hirudin in water, chromatographic analysis (Mono Q / ProPac)
Format: physicochemical
Settings: FIG. 2
Description: MONO Q METHOD: The stability of hirudin can be analysed by FPLC ([…] protein liquid chromatography) using a Mono-Q column (10 μm particle size, 5.0×50 mm, purchased from Pharmacia). The method was developed by Ciba-Geigy, Basel. Solvent A is 50 mM HCOONH4 in H2 O pH 4.5, and solvent B is 50 mM HCOONH4 in H2 O , pH 3.5. The elution is performed at room temperature (22° C.) using a flow rate of 1.4 ml/min. The binary elution for the first 5 min is at constant flow of 20% B, followed by a linear gradient from 20% B to 75% B over 10 minutes, and 2 minutes at 100% B after which the column is equilibrated for 2 min at the starting conditions of 20% B.
PROPAC METHOD: A recently published method for hirudin analysis can also be used [Tuong, A., Maftouh, M., Ponthus, C., Whitechurch, O., Roitsch, C., and Picard, C. (1992) "Characterisation of the Deamidated Forms of Recombinant Hirudin" Biochemistry 31, 8291-8299]. In this method a ProPac PAl anion-exchange column (250×4 mm i.d.) from Dionex is used. Solvent A is 20 mM Tris-HCl, pH 7.0 and solvent B is 0.5M NaCL in A. Isocrastic elution for 5 min at 28% is followed by a linear gradient from 28%B to 54%B over 60 min at a flow rate of 1.3 ml/mim.
The two peaks which elute in the front of the main peak (FIG. 1) are referred to as Q4 and Q5 peaks, respectively. […] The exact nature of the products which produce those extra peaks is not known.

In the case of hirudin, the “change of chromatogram on storage in water” value was “increase of the Q4 and Q5 peaks with time”.
